# Data: PMC5941315
# Biological target: MMP9 full length (UniProt P14780 20-707)
# Assay: fluorescence polarization
# Chain of MMP9 full length (P14780 20-707): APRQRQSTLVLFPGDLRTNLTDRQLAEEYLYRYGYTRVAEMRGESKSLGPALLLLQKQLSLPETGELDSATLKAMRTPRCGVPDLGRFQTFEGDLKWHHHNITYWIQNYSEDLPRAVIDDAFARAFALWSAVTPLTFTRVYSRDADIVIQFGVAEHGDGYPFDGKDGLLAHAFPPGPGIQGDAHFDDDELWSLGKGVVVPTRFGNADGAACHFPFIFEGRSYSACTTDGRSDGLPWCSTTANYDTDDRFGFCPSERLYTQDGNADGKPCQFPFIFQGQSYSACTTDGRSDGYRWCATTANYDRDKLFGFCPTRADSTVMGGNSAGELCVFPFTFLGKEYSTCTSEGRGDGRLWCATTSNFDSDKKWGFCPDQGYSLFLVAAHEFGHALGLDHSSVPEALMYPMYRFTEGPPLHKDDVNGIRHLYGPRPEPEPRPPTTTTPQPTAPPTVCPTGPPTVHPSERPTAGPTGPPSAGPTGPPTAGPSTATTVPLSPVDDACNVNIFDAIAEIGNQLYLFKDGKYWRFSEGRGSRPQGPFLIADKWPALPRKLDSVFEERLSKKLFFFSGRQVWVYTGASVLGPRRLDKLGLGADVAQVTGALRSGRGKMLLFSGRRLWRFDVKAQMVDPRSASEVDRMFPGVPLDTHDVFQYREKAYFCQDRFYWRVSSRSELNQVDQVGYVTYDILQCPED
binder,measurement,value
ACGCCAATAACGCTATTCGAGCTCGAGACGGCGCGATCTC (ssDNA) [Scrambled 40-mer],binding result,binds
